Data as given in paper PMC2615626.

Target: Sulfolobus solfataricus 50S ribosomal subunit (S. solfataricus (endogenous in S. solfataricus cells)) (UniProt P55858)
Assay: co-sedimentation

Chain of UniProt P55858 (P55858 whole entry, looked up, tested part not stated): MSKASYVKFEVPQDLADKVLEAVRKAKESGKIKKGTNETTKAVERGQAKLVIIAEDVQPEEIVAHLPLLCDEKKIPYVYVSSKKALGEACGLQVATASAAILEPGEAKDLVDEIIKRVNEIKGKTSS

stoichiometry N: 1 aIF6 per 50S
Substance: recombinant Sulfolobus solfataricus aIF6, His-tagged (natural protein)
